Bounds are passed on as bounds.

Assay [1] concerns the target AAV-amyloid-453-587 (AAV-2; human) (UniProt P03135).
In assay [2] the target is purified αVβ3 integrin (CHEMICON) (UniProt P06756).

As for “anti-β-amyloid mAb 6E10 (CHEMICON) (antibody)”, the fold higher affinity against the I-587-insertion mutant (AAV-amyloid-587) in assay [1] was greater than 2 fold. In assay [2], “AAV2 RGD4C 453 A2 (from UniProt P03135 1-453; P03135 454-735) (other; other documents disagree on this pair)” returned a fold increase of binding activity against RGD4C 453 of 50 fold.

(Values after US20100203083A1.)
